Like-named read-outs stand apart in the source and are kept apart here. Blank lines part the entries; values can stand above or below the substance they belong to.
Columns and labels:
MBP-DurN = assay: fluorescence polarisation
DurN [1] = assay: crystal structure
DurN [2] = assay: crystal structure; remark: listed apart in the source
DurN [3] = assay: crystal structure; remark: listed apart in the source
[4] = target: fluorescently labeled duramycin; assay: fluorescence polarisation

Ki (MBP-DurN): 10.2 µM
Substance: 1-Hya15Ser (peptide)

stoichiometry N (DurN [1]): 2
stoichiometry N (DurN [2]): 2
stoichiometry N (DurN [3]): 2
Substance: DurN (enzyme)

Kd [4]: 417 nM
Substance: MBP-DurN (enzyme)

Ki [4]: 7.43 µM
Substance: MBP-DurN K66A (enzyme)

Ki (MBP-DurN): 2.72 µM
Substance: duramycin (peptide)

Source: article doi:10.1101/358382
